Target: T1, 胃蛋白酶原I (Pepsinogen I) (Homo sapiens (Human), UniProt P0DJD7 63-388, limits assumed)
T1 construct: also called PGI; PG I
Test: ELISA, VHH-pIII in bacterial culture supernatant incubated with PGI antigen; kd derived from binding strength

T1 sequence (P0DJD7 63-388 limits assumed): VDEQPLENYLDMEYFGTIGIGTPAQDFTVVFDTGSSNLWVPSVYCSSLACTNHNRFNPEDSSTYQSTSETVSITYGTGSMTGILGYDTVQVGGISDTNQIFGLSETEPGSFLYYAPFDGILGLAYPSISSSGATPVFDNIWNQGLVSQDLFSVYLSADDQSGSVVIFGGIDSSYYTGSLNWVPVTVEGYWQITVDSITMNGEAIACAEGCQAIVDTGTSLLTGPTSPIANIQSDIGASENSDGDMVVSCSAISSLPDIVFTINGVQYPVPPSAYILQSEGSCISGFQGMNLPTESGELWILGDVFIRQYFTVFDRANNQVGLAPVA

Kd [nM]	Binder
404	单抗PGI_2F1 (VHH) VHH: QVQLVESGGGLVQTGDSLKLSCLASGRTFSSRAMGWFRQAPGKEREFVAAISTSGVLKYYAPSVKGRFTISRDNAKNTMYLEMNSPEPEDTAVYYCAANGPPFGAYWWPTAREYDAWGQGTQVTVSS
1030	单抗PGI_1G9 (VHH) VHH: QVQLVQSGGGSAHLGGSLRLSCAASGFIFSDYYMAWVRQAPGKEREWVSEINTSGRTYYADSVKGRFTISRDNAKNTLYLQMDSLKPEDTAVYYCYVHRSSIFTNREYWGQGTQVTVSS
123	单抗PGI_1H10 (VHH) VHH: QVQLVQSGGGLVQAGGSLRLSCVVSGFNFSSFDRYTMSWVRQIPGKGLEWVSAINGGGIKTAYADSVKGRFTISRDNAKNTVYLQMNDLKPADTAVYYCTFTRWLVRGDYWGQGTQVTVSS

From patent publication CN114591436A (BIOLOGICAL ISLAND LABORATORY; UNIV SCIENCE AND TECHNOLOGY …, dated 2022)
